Laboratory results published in patent publication US20230131056A1 (Stanford University, published 2023).
Residue numbers refer to the chain shown, from its start. Like-named read-outs stand apart in the source and are kept apart here.

What was measured:
PD-L2-Fc (human PD-L2) [1] = molecular target: T1, PD-L2-Fc (human PD-L2) (human, UniProt Q9BQ51 20-220, limits assumed); assay: yeast surface display binding assay for PDL2 (summary list)
T1 construct: not shown: Fc portion
T1 sequence (looked up): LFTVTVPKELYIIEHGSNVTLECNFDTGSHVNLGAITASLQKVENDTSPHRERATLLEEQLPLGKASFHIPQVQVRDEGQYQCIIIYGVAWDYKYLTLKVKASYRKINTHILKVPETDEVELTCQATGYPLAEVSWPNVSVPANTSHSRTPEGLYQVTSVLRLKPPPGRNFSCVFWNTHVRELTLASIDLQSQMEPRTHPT

PD-L2-Fc (human PD-L2) [2] = molecular target: T1, PD-L2-Fc (human PD-L2); assay: yeast surface display, flow cytometry titration with soluble PDL2
PD-L2-Fc (human PD-L2) [3] = molecular target: T1, PD-L2-Fc (human PD-L2); assay: yeast surface display, flow cytometry titration with soluble PDL2 (cell binding A.U. against PDL2 concentration)
PDL1-Fc (human PD-L1) [4] = molecular target: T2, PDL1-Fc (human PD-L1) (human, UniProt Q9NZQ7 19-238, limits assumed); assay: yeast surface display binding assay for PDL1 (summary list)
T2 construct: not shown: Fc portion
T2 sequence (Q9NZQ7 19-238 limits assumed): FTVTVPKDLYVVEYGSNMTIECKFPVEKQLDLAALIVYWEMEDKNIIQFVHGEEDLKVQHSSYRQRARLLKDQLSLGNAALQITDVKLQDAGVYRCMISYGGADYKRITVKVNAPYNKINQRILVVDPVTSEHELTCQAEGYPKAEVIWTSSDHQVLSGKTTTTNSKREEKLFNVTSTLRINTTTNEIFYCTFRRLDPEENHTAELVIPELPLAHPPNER

PDL1-Fc (human PD-L1) [5] = molecular target: T2, PDL1-Fc (human PD-L1); assay: yeast surface display, flow cytometry titration with soluble PDL1
PD-L2-Fc (human PD-L2) [6] = molecular target: T1, PD-L2-Fc (human PD-L2); assay: yeast surface display, flow cytometry titration with soluble PDL2; remark: listed apart in the source
PDL1-Fc (human PD-L1) [7] = molecular target: T2, PDL1-Fc (human PD-L1); assay: yeast surface display, flow cytometry titration with soluble PDL1 (cell binding A.U. against PDL1 concentration)
PD-L2-Fc (human PD-L2) [8] = molecular target: T1, PD-L2-Fc (human PD-L2); assay: yeast surface display, flow cytometry titration with soluble PDL2 (cell binding A.U. against PDL2 concentration); remark: listed apart in the source
PD-L2-Fc (human PD-L2) [9] = molecular target: T1, PD-L2-Fc (human PD-L2); assay: yeast surface display, flow cytometry titration with soluble PDL2; remark: listed apart in the source
PDL1-Fc (human PD-L1) [10] = molecular target: T2, PDL1-Fc (human PD-L1); assay: yeast surface display, flow cytometry titration with soluble PDL1 (cell binding A.U. against PDL1 concentration); remark: listed apart in the source
PD-L2-Fc (human PD-L2) [11] = molecular target: T1, PD-L2-Fc (human PD-L2); assay: yeast surface display, flow cytometry titration with soluble PDL2 (cell binding A.U. against PDL2 concentration); remark: listed apart in the source
PDL1-Fc (human PD-L1) [12] = molecular target: T2, PDL1-Fc (human PD-L1); assay: yeast surface display, flow cytometry titration with soluble PDL1 (cell binding A.U. against PDL1 concentration); remark: listed apart in the source
PD-L2-Fc (human PD-L2) [13] = molecular target: T1, PD-L2-Fc (human PD-L2); assay: yeast surface display, flow cytometry titration with soluble PDL2 (cell binding A.U. against PDL2 concentration); remark: listed apart in the source
PD-L2-Fc (human PD-L2) [14] = molecular target: T1, PD-L2-Fc (human PD-L2); assay: yeast surface display, flow cytometry titration with soluble PDL2; remark: listed apart in the source
PDL1-Fc (human PD-L1) [15] = molecular target: T2, PDL1-Fc (human PD-L1); assay: yeast surface display, flow cytometry titration with soluble PDL1 (cell binding A.U. against PDL1 concentration); remark: listed apart in the source
PD-L2-Fc (human PD-L2) [16] = molecular target: T1, PD-L2-Fc (human PD-L2); assay: yeast surface display, flow cytometry titration with soluble PDL2 (cell binding A.U. against PDL2 concentration); remark: listed apart in the source
PDL1-Fc (human PD-L1) [17] = molecular target: T2, PDL1-Fc (human PD-L1); assay: yeast surface display, flow cytometry titration with soluble PDL1; remark: listed apart in the source
PD-L2-Fc (human PD-L2) [18] = molecular target: T1, PD-L2-Fc (human PD-L2); assay: yeast surface display, flow cytometry titration with soluble PDL2; remark: listed apart in the source
PDL1-Fc (human PD-L1) [19] = molecular target: T2, PDL1-Fc (human PD-L1); assay: yeast surface display, flow cytometry titration with soluble PDL1 (cell binding A.U. against PDL1 concentration); remark: listed apart in the source
PD-L2-Fc (human PD-L2) [20] = molecular target: T1, PD-L2-Fc (human PD-L2); assay: yeast surface display, flow cytometry titration with soluble PDL2 (cell binding A.U. against PDL2 concentration); remark: listed apart in the source

B1: Clone #3 (128-6 mutations, yeast displayed sPD-1 mutant) (receptor)
chain: LDSPDRPWNPPTFSPALLVVTEGDNATFTCSFSNTSESFVLNWYRMSPSNQTDKLAAFPEDRGQLGQDCRFRVTQLPNGRDFHMSVVRARRNDSGTYLCSAIVLAPKIQIKESLRVELRVTERRAEVPTAHPSPSPRPAGQFQTLV
With B1 as the binder, how does the Kd (PD-L2-Fc (human PD-L2) [1]) read?
The Kd was 1.1 nM.

What about the “EC50 (read off the curve)” value (PD-L2-Fc (human PD-L2) [2]) of the same binder?
The value was ~1 nM.

What about the Kd (PD-L2-Fc (human PD-L2) [3]) of the same binder?
The Kd was 1.1 nM.

B2: Clone #5 (62-3 mutations, yeast displayed sPD-1 mutant) (receptor)
chain: B1 chain with G63S, L65P, V116A
Which results are given for B2?
Kd (PDL1-Fc (human PD-L1) [4]): 0.8 nM; Kd (PD-L2-Fc (human PD-L2) [1]): 4.1 nM; EC50 (read off the curve) (PDL1-Fc (human PD-L1) [5]): ~0.8 nM; EC50 (read off the curve) (PD-L2-Fc (human PD-L2) [6]): ~4 nM; Kd (PDL1-Fc (human PD-L1) [7]): 0.8 nM; Kd (PD-L2-Fc (human PD-L2) [8]): 4.1 nM

B3: Clone #1 (121-5 mutations, yeast displayed sPD-1 mutant) (receptor)
chain: B1 chain with G63S
Which Kd (PDL1-Fc (human PD-L1) [4]) does the source give for B3 here?
The Kd was 0.03 nM.

And the Kd (PD-L2-Fc (human PD-L2) [1])?
Its Kd is 1.4 nM.

What about the “EC50 (read off the curve)” value (PD-L2-Fc (human PD-L2) [9]) of the same binder?
The value was ~1 nM.

What about the Kd (PDL1-Fc (human PD-L1) [10]) of the same binder?
Its Kd is 0.03 nM.

What about the Kd (PD-L2-Fc (human PD-L2) [11]) of the same binder?
Its Kd is 1.4 nM.

B4: Clone #2 (120-5 mutations, yeast displayed sPD-1 mutant) (receptor)
chain: B1 chain with L65P
For B4, which Kd (PDL1-Fc (human PD-L1) [4]) is on record?
The Kd was 0.12 nM.

What about the Kd (PD-L2-Fc (human PD-L2) [1]) of the same binder?
Its Kd is 0.11 nM.

And the Kd (PDL1-Fc (human PD-L1) [12])?
Its Kd is 0.12 nM.

And the Kd (PD-L2-Fc (human PD-L2) [13])?
The Kd was 0.11 nM.

B5: Clone #4 (100-4 mutations, yeast displayed sPD-1 mutant) (receptor)
chain: B1 chain with G63S, L65P
Which results are given for B5?
Kd (PDL1-Fc (human PD-L1) [4]): 0.08 nM; Kd (PD-L2-Fc (human PD-L2) [1]): 0.87 nM; EC50 (read off the curve) (PD-L2-Fc (human PD-L2) [14]): ~0.9 nM; Kd (PDL1-Fc (human PD-L1) [15]): 0.08 nM; Kd (PD-L2-Fc (human PD-L2) [16]): 0.87 nM

B6: original mutant sPD-1 (7 mutations, yeast displayed) (receptor)
chain: B1 chain with S38G
notes: also called initial Mutant PD-1 clone; 2-7 mutations
Which results are given for B6?
Kd (PDL1-Fc (human PD-L1) [4]): 0.44 nM; Kd (PD-L2-Fc (human PD-L2) [1]): 2.6 nM; EC50 (read off the curve) (PDL1-Fc (human PD-L1) [17]): ~0.4 nM; EC50 (read off the curve) (PD-L2-Fc (human PD-L2) [18]): ~3 nM; Kd (PDL1-Fc (human PD-L1) [19]): 0.44 nM; Kd (PD-L2-Fc (human PD-L2) [20]): 2.6 nM
